Measured values from the supplement of paper PMC9112550, “Optimization of the antimicrobial peptide Bac7 by deep mutational scanning” (BMC Biology, 2022).

System: Escherichia coli TOP10
Experiment: shrunken log2 fold change of peptide-encoding DNA abundance (4.5 h post-induction vs induction); higher = less antimicrobial activity (less host growth inhibition)
Settings: time post-induction: 4.5 h; library: site-saturation at positions 5, 18, 19, 20
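Further: peptides expressed intracellularly from a pBAD plasmid library in pooled LB shake-flask culture, induced with 0.3% L-arabinose, DNA abundance read by NGS, three biological replicates, DESeq2 with apeglm shrinkage.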

Sequence | shrunken log2 fold change
RRIRLRPPRLPRPRPRPAMCPRP | 0.059
RRIRIRPPRLPRPRPRPSKAPRP | -0.176
RRIRFRPPRLPRPRPRPSGVPRP | 0.0832
RRIRCRPPRLPRPRPRPVIFPRP | -0.408
RRIRDRPPRLPRPRPRPLYNPRP | -0.321
RRIRSRPPRLPRPRPRPHPYPRP | -0.807
RRIRDRPPRLPRPRPRPEHIPRP | -0.193
RRIRNRPPRLPRPRPRPIQRPRP | 0.00743
RRIRPRPPRLPRPRPRPLKRPRP | -0.161
RRIRHRPPRLPRPRPRPALSPRP | -0.257
RRIRRRPPRLPRPRPRPQNYPRP | -0.304
RRIRRRPPRLPRPRPRPMIQPRP | 0.107
RRIRGRPPRLPRPRPRPRNMPRP | 0.0712
RRIRKRPPRLPRPRPRPCCHPRP | -1.07
RRIRERPPRLPRPRPRPFAIPRP | -0.122
RRIRYRPPRLPRPRPRPMSTPRP | -0.0213
RRIRVRPPRLPRPRPRPREMPRP | 0.0631
RRIRWRPPRLPRPRPRPVMHPRP | -0.119
RRIRCRPPRLPRPRPRPCTCPRP | -0.583
RRIRVRPPRLPRPRPRPHNCPRP | -0.0364
RRIRTRPPRLPRPRPRPMYYPRP | 0.0219
RRIRGRPPRLPRPRPRPCCLPRP | 0.429
RRIRHRPPRLPRPRPRPGEPPRP | -0.0215
RRIRPRPPRLPRPRPRPCTGPRP | -0.00227
RRIRSRPPRLPRPRPRPGIIPRP | -0.454

Sequence | shrunken log2 fold change
RRIRIRPPRLPRPRPRPSFYPRP | -0.776
RRIRMRPPRLPRPRPRPCDTPRP | 0.13
RRIRYRPPRLPRPRPRPPEMPRP | 0.123
RRIRYRPPRLPRPRPRPQDWPRP | -0.258
RRIRFRPPRLPRPRPRPWGPPRP | -0.106
RRIRNRPPRLPRPRPRPAWMPRP | 0.056
RRIRKRPPRLPRPRPRPDTWPRP | 0.35
RRIRIRPPRLPRPRPRPYMSPRP | -1.19
RRIRYRPPRLPRPRPRPMMWPRP | 0.00408
RRIRTRPPRLPRPRPRPALRPRP | 0.398
RRIRRRPPRLPRPRPRPISEPRP | 0.00118
RRIRWRPPRLPRPRPRPWYGPRP | -0.34
RRIRYRPPRLPRPRPRPGLQPRP | -0.0156
RRIRLRPPRLPRPRPRPGGFPRP | 0.176
RRIRIRPPRLPRPRPRPLMQPRP | -0.564
RRIRLRPPRLPRPRPRPPHMPRP | -0.0106
RRIRVRPPRLPRPRPRPYHEPRP | -0.159
RRIRDRPPRLPRPRPRPVCVPRP | 0.514
RRIRTRPPRLPRPRPRPMHYPRP | -1.41
RRIRLRPPRLPRPRPRPDVFPRP | -0.165
RRIRHRPPRLPRPRPRPACIPRP | -0.132
RRIRERPPRLPRPRPRPVNMPRP | -0.139
RRIRGRPPRLPRPRPRPTMFPRP | 0.521
RRIRFRPPRLPRPRPRPWVQPRP | -0.116
RRIRLRPPRLPRPRPRPTDEPRP | -0.111

Sequence | shrunken log2 fold change
RRIRYRPPRLPRPRPRPYSAPRP | -1.51
RRIRERPPRLPRPRPRPGPGPRP | 0.268
RRIRERPPRLPRPRPRPRIQPRP | -0.362
RRIRERPPRLPRPRPRPIGDPRP | -0.942
RRIRHRPPRLPRPRPRPYFFPRP | -0.485
RRIRVRPPRLPRPRPRPDRGPRP | -0.0555
RRIRRRPPRLPRPRPRPYFDPRP | -0.823
RRIRDRPPRLPRPRPRPFSIPRP | 0.0044
RRIRNRPPRLPRPRPRPCFTPRP | -0.733
RRIRQRPPRLPRPRPRPWCTPRP | -0.244
RRIRMRPPRLPRPRPRPVYHPRP | -0.435
RRIRWRPPRLPRPRPRPYNSPRP | -0.178
RRIRFRPPRLPRPRPRPEIIPRP | -0.0938
RRIRYRPPRLPRPRPRPPKKPRP | -0.0754
RRIRPRPPRLPRPRPRPQDSPRP | -0.196
RRIRTRPPRLPRPRPRPHTDPRP | -0.401
RRIRKRPPRLPRPRPRPQIKPRP | 0.0963
RRIRMRPPRLPRPRPRPAFKPRP | -0.323
RRIRWRPPRLPRPRPRPPPVPRP | 0.931
RRIRIRPPRLPRPRPRPYNWPRP | -0.577
RRIRARPPRLPRPRPRPMKEPRP | -0.101
RRIRVRPPRLPRPRPRPMHRPRP | -0.0728
RRIRHRPPRLPRPRPRPRPYPRP | 0.0624
RRIRFRPPRLPRPRPRPPADPRP | 0.789
RRIRGRPPRLPRPRPRPGDWPRP | 1.34
